Results: EP4063497B1

Target: IMP-4-type carbapenemase
Experiment: indirect ELISA, plate coated with IMP-4-type carbapenemase at 0.2 ug/mL, purified antibody serially diluted from 1:1,000
Conditions: scale: dilution factor

B1: anti-IMP-type carbapenemase antibody 1AA4 (antibody, V domains shown)
VH: VQLVVSGGGLVNPDGSLKLSCAASGFTFSDYYMYWVRQTPEKRLEWVAIISDGGSYTYYPDSVKGRFTISRDNAKNNLYLQMSGLRSEDTAMYYCVRGSFDVWGAGTTVTVSA
VL: DIVMTQSPLTLSVTLGQPASISCRSSQSLLDSGGKTYLNWFLQRPGQSPKRLIYLVSKLDSGVPDRFTGSGSGTDFTLRISRVEAEDLGIYYCFQYTHFPQCTFGGGTTLEIKR
titer: > 640000

B2: anti-IMP-type carbapenemase antibody AH9 (antibody, V domains shown)
VH: VKLQQSGAELVKPGASVKISCKASGYTFTDYNMDWVKQSHGKSLEWIGDINPNYDSTRYNQKFKGKATLTVDKSSSTAYMELRSLTSEDTAVYYCARDGRYAMDYWGQGTSVTVSS
VL: DIVMTQSPSSLSVSAGEKVTLTCKSSQSLLNSGHQKNYLAWYQQKPGQPPKLLIYGASTRKSGIPDRFTGSGSGTDFTLTISSVQAEDLAVYYCQNDHRYPLTFGAGTKLELKR
titer: > 640000
